Assay results published in patent publication EP4682166A1 (Guangzhou Enmai Biotechnology Co., Ltd, dated 2026).
Positions count from the first letter of the chain named. Names and notes keep the numbering of the source. Where two headings read alike, the source gives them in different places. Blank lines part the entries; values can stand above or below the binder they belong to.

Legend:
[1] = biological target: T1, human NMI (N-myc Interacting protein), recombinant protein (human, UniProt Q13287 1-307, limits assumed); experiment: ELISA EC50 against parent B-8
T1 construct: Gene ID: 9111; also called hNMI; antigen
T1 sequence (looked up): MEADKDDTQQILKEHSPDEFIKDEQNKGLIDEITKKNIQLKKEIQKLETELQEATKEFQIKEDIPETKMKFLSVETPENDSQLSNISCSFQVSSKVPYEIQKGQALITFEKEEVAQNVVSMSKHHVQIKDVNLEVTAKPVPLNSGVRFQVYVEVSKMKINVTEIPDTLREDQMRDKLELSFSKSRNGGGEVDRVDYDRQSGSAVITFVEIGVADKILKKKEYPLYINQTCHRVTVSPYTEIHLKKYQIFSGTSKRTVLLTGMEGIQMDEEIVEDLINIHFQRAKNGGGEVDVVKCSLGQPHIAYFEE

[2] = biological target: T1, human NMI (N-myc Interacting protein), …; experiment: ELISA EC50 against parent B-8; remark: listed apart in the source
[3] = biological target: T1, human NMI (N-myc Interacting protein), …; experiment: ELISA, binding to hNMI
[4] = biological target: T1, human NMI (N-myc Interacting protein), …; experiment: sandwich ELISA; detection 94C4-1-biotin 1µg/mL; hNMI 6,250.000 pg/mL
[5] = biological target: T1, human NMI (N-myc Interacting protein), …; experiment: sandwich ELISA; detection 94C4-1-biotin 0.5µg/mL; hNMI 1,562.500 pg/mL
[6] = biological target: T1, human NMI (N-myc Interacting protein), …; experiment: ELISA, binding to hNMI; remark: listed apart in the source
[7] = biological target: T1, human NMI (N-myc Interacting protein), …; experiment: sandwich ELISA; detection 94C4-1-biotin 1µg/mL; hNMI 12,500.000 pg/mL
[8] = biological target: T1, human NMI (N-myc Interacting protein), …; experiment: sandwich ELISA; detection 94C4-1-biotin 0.5µg/mL; hNMI 195.313 pg/mL
[9] = biological target: T1, human NMI (N-myc Interacting protein), …; experiment: sandwich ELISA; detection 94C4-1-biotin 1µg/mL; hNMI 97.656 pg/mL
[10] = biological target: T1, human NMI (N-myc Interacting protein), …; experiment: sandwich ELISA; detection 94C4-1-biotin 0.5µg/mL; hNMI 50,000.000 pg/mL
[11] = biological target: T1, human NMI (N-myc Interacting protein), …; experiment: sandwich ELISA; detection 94C4-1-biotin 1µg/mL; hNMI 25,000.000 pg/mL
[12] = biological target: T1, human NMI (N-myc Interacting protein), …; experiment: sandwich ELISA; detection 94C4-1-biotin 0.5µg/mL; hNMI 48.828 pg/mL
[13] = biological target: T1, human NMI (N-myc Interacting protein), …; experiment: sandwich ELISA; detection 94C4-1-biotin 0.5µg/mL; hNMI 6,250.000 pg/mL
[14] = biological target: T1, human NMI (N-myc Interacting protein), …; experiment: sandwich ELISA; detection 94C4-1-biotin 1µg/mL; hNMI 781.250 pg/mL
[15] = biological target: T1, human NMI (N-myc Interacting protein), …; experiment: sandwich ELISA; detection 94C4-1-biotin 1µg/mL; hNMI 48.828 pg/mL
[16] = biological target: T1, human NMI (N-myc Interacting protein), …; experiment: sandwich ELISA; detection 94C4-1-biotin 0.5µg/mL; hNMI 781.250 pg/mL
[17] = biological target: T1, human NMI (N-myc Interacting protein), …; experiment: ELISA, binding to hNMI; remark: listed apart in the source
[18] = biological target: T1, human NMI (N-myc Interacting protein), …; experiment: sandwich ELISA; detection 94C4-1-biotin 1µg/mL; hNMI 195.313 pg/mL
[19] = biological target: T1, human NMI (N-myc Interacting protein), …; experiment: sandwich ELISA; detection 94C4-1-biotin 1µg/mL; hNMI 1,562.500 pg/mL
[20] = biological target: T1, human NMI (N-myc Interacting protein), …; experiment: sandwich ELISA; detection 94C4-1-biotin 1µg/mL; hNMI 50,000.000 pg/mL
[21] = biological target: T1, human NMI (N-myc Interacting protein), …; experiment: sandwich ELISA; detection 94C4-1-biotin 0.5µg/mL; hNMI 3,125.000 pg/mL
[22] = biological target: T1, human NMI (N-myc Interacting protein), …; experiment: sandwich ELISA; detection 94C4-1-biotin 0.5µg/mL; hNMI 25,000.000 pg/mL
[23] = biological target: T1, human NMI (N-myc Interacting protein), …; experiment: sandwich ELISA; detection 94C4-1-biotin 0.5µg/mL; hNMI 390.625 pg/mL
[24] = biological target: T1, human NMI (N-myc Interacting protein), …; experiment: sandwich ELISA; detection 94C4-1-biotin 1µg/mL; hNMI 390.625 pg/mL
[25] = biological target: T1, human NMI (N-myc Interacting protein), …; experiment: indirect ELISA, coated hNMI
[26] = biological target: T1, human NMI (N-myc Interacting protein), …; experiment: sandwich ELISA; detection 94C4-1-biotin 0.5µg/mL; hNMI 97.656 pg/mL
[27] = biological target: T1, human NMI (N-myc Interacting protein), …; experiment: sandwich ELISA; detection 94C4-1-biotin 0.5µg/mL; hNMI 12,500.000 pg/mL
[28] = biological target: T1, human NMI (N-myc Interacting protein), …; experiment: sandwich ELISA; detection 94C4-1-biotin 1µg/mL; hNMI 3,125.000 pg/mL

B1: B-8 mutant G106K (VH) (antibody, V domains shown)
VH: QSLEESGGDLVKPGASLTLTCTASGFSFSSSYYMCWVRQAPGKGLEWIACIYAGSSGSTYYASWAKGRFTISKTSSTTVTLQMTSLTAADTATYFCAREYSYDDYKDFWGFNLWGPGTLVTVSS
VL: ALVMTQTPSSVSAAVGGTVTINCQASQNIYTNLAWYQQKPGQPPKLLIYGASNLESGVPSRFKGSGSGTEYTLTISDLECDDAATYYCQSSLYSRIADRANAFGGGTEVVVK
Fold decrease in affinity [1]: > 100 fold

B2: B-8-2 (antibody, V domains shown)
VH: B1 VH with K106G
VL: B1 VL with S91R
notes: also called B-8 S91R (VL)
Fold decrease in affinity [2]: 4.68 fold
EC50 [3]: 1.45 nM

B3: B-8 mutant S101Y (VH) (antibody, V domains shown)
VH: B1 VH with S101Y, K106G
VL: B1 VL
Fold decrease in affinity [1]: > 500 fold

B4: B-8 mutant S101K (VH) (antibody, V domains shown)
VH: B1 VH with S101K, K106G
VL: B1 VL
Fold decrease in affinity [1]: > 500 fold

B7: B-8-1 (antibody, V domains shown)
VH: B1 VH with K106G
VL: B1 VL with Y93E
notes: also called B-8 Y93E (VL)
Fold decrease in affinity [2]: 2.26 fold
EC50 [3]: 0.698 nM

B9: B-8 mutant T31V (VL) (antibody, V domains shown)
VH: B1 VH with K106G
VL: B1 VL with T31V
Fold decrease in affinity [1]: > 100 fold

The remaining lines, values ahead:

Fold decrease in affinity [2]: 0.57 fold
EC50 [3]: 0.177 nM
B5: B-8-4 (antibody, V domains shown)
VH: B1 VH with Y61E, K106G
VL: B1 VL
notes: also called B-8 Y61E (VH)

Fold decrease in affinity [2]: 0.57 fold
EC50 [3]: 0.176 nM
B6: B-8-3 (antibody, V domains shown)
VH: B1 VH with Y33E, K106G
VL: B1 VL
notes: also called B-8 Y33E (VH)

Fold decrease in affinity [2]: 0.77 fold
EC50 [3]: 0.238 nM
B8: B-8-5 (antibody, V domains shown)
VH: B1 VH with K106G, F111A
VL: B1 VL
notes: also called B-8 F111A (VH)

OD450 [4]: 1.53 OD450
OD450 [5]: 0.596 OD450
EC50 [6]: 0.165 nM
OD450 [7]: 2.31 OD450
OD450 [8]: 0.159 OD450
OD450 [9]: 0.149 OD450
OD450 [10]: 3.25 OD450
OD450 [11]: 2.74 OD450
OD450 [12]: 0.108 OD450
OD450 [13]: 1.6 OD450
OD450 [14]: 0.341 OD450
OD450 [15]: 0.134 OD450
OD450 [16]: 0.377 OD450
EC50 [17]: 0.031 µg/mL
OD450 [18]: 0.179 OD450
OD450 [19]: 0.525 OD450
OD450 [20]: 3.04 OD450
OD450 [21]: 0.958 OD450
OD450 [22]: 2.87 OD450
OD450 [23]: 0.219 OD450
OD450 [24]: 0.233 OD450
EC50 [25]: 0.071 µg/mL
OD450 [26]: 0.126 OD450
OD450 [27]: 2.44 OD450
OD450 [28]: 0.903 OD450
B10: monoclonal antibody 98G10 (antibody, V domains shown)
VH: QEQLEESGGDLVKPEGSLTLTCTASGFSFSASYWICWVRQAPGKGLEWIACIYGGSSGSAYYASWAKGRFTISKTSSTTVTLQMTSLTAADTATYFCARAGYYNYGSAGDIYPSSFKLWGPGTLVTVSS
VL: DIVMTQTPASVEAAVGGTVTINCQASQSISTALAWYQQKPGQPPKLLIYTASKVASGVPSRFSGSGSGTQFTLTISDLECADAATYYCQNYYYSSSSITFGGGTEVVVK
notes: Rabbit monoclonal antibody

OD450 [4]: 1.52 OD450
OD450 [5]: 0.593 OD450
OD450 [7]: 2.15 OD450
OD450 [8]: 0.179 OD450
OD450 [9]: 0.169 OD450
OD450 [10]: 3.16 OD450
OD450 [11]: 2.75 OD450
OD450 [12]: 0.13 OD450
OD450 [13]: 1.56 OD450
OD450 [14]: 0.381 OD450
OD450 [15]: 0.145 OD450
OD450 [16]: 0.387 OD450
OD450 [18]: 0.207 OD450
OD450 [19]: 0.547 OD450
OD450 [20]: 3.1 OD450
OD450 [21]: 0.96 OD450
OD450 [22]: 2.75 OD450
OD450 [23]: 0.25 OD450
OD450 [24]: 0.251 OD450
EC50 [25]: 0.0535 µg/mL
OD450 [26]: 0.143 OD450
OD450 [27]: 2.3 OD450
OD450 [28]: 0.932 OD450
B11: monoclonal antibody 39B4 (antibody, V domains shown)
VH: QEQLVESGGGLVQPEGSLTLTCTASGFSFSSSYWICWVRQAPGKGLEWIACIYAGTSGSTYYASWAKGRFTISKTSSTTVDLQMNSLTAADTATYFCARAGYYTYGAGVYIYPSSFKLWGPGTLVTVSS
VL: B10 VL with I2V, N22K, Q27E, S30G, T31N, T50S, K53N, V54L, N90S
notes: Rabbit monoclonal antibody; also called 39B4-1
